Biological target: murine P2X purinoceptor 4 (Q9JJX6) (mouse) (UniProt Q9JJX6)
Experiment: cell-based or functional assay

Chain of UniProt Q9JJX6 (Q9JJX6 whole entry, form in doubt): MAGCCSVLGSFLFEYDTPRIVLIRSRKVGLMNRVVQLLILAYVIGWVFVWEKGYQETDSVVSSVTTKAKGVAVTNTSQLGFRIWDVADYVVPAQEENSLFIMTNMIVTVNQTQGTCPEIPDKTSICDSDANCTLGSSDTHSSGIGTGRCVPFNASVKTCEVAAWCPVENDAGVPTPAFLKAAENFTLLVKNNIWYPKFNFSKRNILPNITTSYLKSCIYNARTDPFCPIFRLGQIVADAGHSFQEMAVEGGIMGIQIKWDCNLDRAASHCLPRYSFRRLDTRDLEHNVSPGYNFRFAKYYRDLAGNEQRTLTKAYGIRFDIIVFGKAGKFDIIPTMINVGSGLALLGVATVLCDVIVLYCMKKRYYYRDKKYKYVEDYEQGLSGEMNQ

- fraction of control current (fraction of control current): 1.08
Substance: hIgG1 NIP 228 TM (antibody)
